Results: patent publication US20240025971A1 (ATRECA, published 2024)
Where a chain is given by its changes, count along the chain named.

B1: AB-010020 (antibody, V domains shown)
VH: QMQLVQSGPEVKKPGTSVKVSCKASGFTFTSSAVQWVRQARGQRLEWIGWIVVGSGNTNYAQKFQERVTITRDMSTSTAYMELSSLRSEDTAVYYCAAPACSSTSCYDGFDIWGQGTMVTVSS
VL: not shown
notes: human IgG1
B2: AB-010021 (antibody, V domains shown)
VH: B1 VH with P99V, A100Y, S103G, T104G, Y107L, G109A
VL: not shown
notes: human IgG1; also called AB-0010021
B3: AB-009271 (antibody, V domains shown)
VH: EVQLVESGGGLIQPGGSLRLSCAASGFIVSSNYMSWVRQAPGKGLEWVSVIYSGGSTYYADSVKGRFTISRDNSKNTLYLQMNSLRAEDTAVYYCARDYGDFYFDYWGQGTLVTVSS
VL: EIVMTQSPATLSVSPGERATLSCRASQSVSSNLAWYQQKPGQAPRLLIYGASTRATGIPARFSGSGSGTEFTLTISSLQSEDFAVYYCQQYYNWPRTFGQGTKVEIK
notes: human IgG1
B4: AB-009613 (antibody, V domains shown)
VH: B3 VH with I28T
VL: not shown
notes: human IgG1
B5: AB-009610 (antibody, V domains shown)
VH: QVQLVQSGAEVKKPGSSVKVSCKASGGTFSNYAISWVRQAPGQGLEWMGRIIPILGIANYAQKFQGRVTITADKSTSTAYMELSSLRSEDTAVYYCATTPYYYDSSGYYLDYWGQGTLVTVSS
VL: not shown
notes: human IgG1
B6: AB-009634 (antibody, V domains shown)
VH: QVTLKESGPALVKPTQTLTLTCTFSGFSLSTSGMRVSWIRQPPGKALEWLARIDWDDDKFYSTSLKTRLTISKDTSKNQVVLTMTNMDPVDTATYYCARYYYYGMDVWGQGTTVTVSS
VL: not shown
B7: AB-009665 (antibody, V domains shown)
VH: QVQLVQSGAEVKKPGASVKVSCKVSGYTLIELSMHWVRQAPGKGLEWMGGFDPEDGETIYAQKFQGRVTMTEDTSTDTAYMELSSLRSEDTAVYYCAAARVFGVATWFDPWGQGTLVTVSS
VL: QSVLTQPPSVSAAPGQKVTISCSGSSSNIGNNYVSWYQQLPGTAPKLLIYDNNKRPSGIPDRFSGSKSGTSATLGITGLQTGDEADYYCGTWDSSLSAGVFGGGTKLTVL
notes: human IgG1
B8: AB-009666 (antibody, V domains shown)
VH: EVQLVESGGGLVQPGGSLRLSCAASGFTFSSYDMHWVRQATGKGLEWVSTIGTAGDTYYPGSVKGRFTISRENAKNSLYLQMNSLRAEDTAVYYCARVNYDSSGYPTYWYFDLWGRGTLVTVSS
VL: DIQMTQSPSSLSASVGDRVTITCRASQSISRYLNWYQQKPGKAPKLLIYAASSLQSGVPSRFSGSGSGTDFTLTISSLQPEDFATYNCQQSYSSPPWTFGQGTKVEIK
notes: human IgG1
B9: AB-009627 (antibody, V domains shown)
VH: QVQLQQWGAGLLKPSETLSLTCAVYGGSFSGYYWSWIRQPPGKGLEWIGEINHSGSTNYNPSLKSRVTISVDTSKNQFSLKLSSVTAADTAVFYCARGGYSSSWYGEKYWFDPWGQGTLVTVSS
VL: QSALTQPRSVSGSPGQSVTISCTGTSSDVGGYNYVSWYQQHPGKAPKLMIYDVSKRPSGVPDRFSGSKSGNTASLTISGLQAEDEADYYCCSYAGSPYVFGTGTKVTVL
notes: human IgG1
B10: AB-009190 (antibody, V domains shown)
VH: QVQLVESGGGVVQPGRSLRLSCAASGFTFSSYAMHWVRQAPGKGLEWVAVISYDGSNKYYADSVKGRFTISRDNSKNTLYLQMNSLRAEDTAVYYCARLNGDAYYYYGMDVWGQGTTVTVSS
VL: not shown
notes: human IgG1
B11: AB-009213 (antibody, V domains shown)
VH: EVQLVESGGGLVKPGGSLRLSCAASGFTFSSYSMNWVRQAPGKGLEWVSSISSSSSYIYYADSVKGRFTISRDNAKNSLYLQMNSLRAEDTAVYYCARDKLREDGDYDDAFDIWGQGTMVTVSS
VL: not shown
notes: human IgG1
B12: AB-009119 (antibody, V domains shown)
VH: EVQLVESGGGLVQPGGSLKLSCAASGFTFSGSAMHWVRQASGKGLEWVGRIRSKANSYATAYAASVKGRFTISRDDSKNTAYLQMNSLKTEDTAVYYCTRHGTTVNWGQGTLVTVSS
VL: not shown
notes: human IgG1
B13: AB-009095 (antibody, V domains shown)
VH: EVQLVQSGAEVKKPGESLIISCTGSGYTFATFWITWVRQMPGKGLEWLGRIDPSDSYTNYNPSFQGHVTVSVDRSINTAYLELTSLKASDTAIYYCARQMYNTGWPIPNYSDYWGQGTLVTVSS
VL: QSALTQPPSASGSPGQSVTISCAGASTDVGVYNFVSWYQQHPGKAPKLIIFDVNKRPSGVPDRFSGSKSGNTASLTVSGLQAEDEADYYCSSYEVGNNFVFGTGTKVTVL
notes: human IgG1

The binders below were run against SARS-CoV-2 Wuhan-1 full-length Spike protein (SARS-CoV-2, UniProt P0DTC2 14-1273) (assay: cell-based or functional assay).

| Binder | Pseudovirus Neutralization |
| --- | --- |
| B1 | 0.004 µg/mL |
| B2 | 1.56 µg/mL |
| B3 | 0.058 µg/mL |
| B4 | 1.53 µg/mL |
| B5 | 6.77 µg/mL |

The binders below were run against SARS-CoV-1 spike (pseudovirus) (SARS-CoV-1, UniProt P59594 14-1255) (assay: cell-based or functional assay).

| Binder | Pseudovirus Neutralization |
| --- | --- |
| B1 | > 50 µg/mL |
| B2 | > 50 µg/mL |
| B3 | > 50 µg/mL |
| B4 | > 50 µg/mL |
| B5 | > 50 µg/mL |

What follows are binders tested against SARS-CoV-2 Spike (S) trimer (SARS-CoV-2, UniProt P0DTC2 14-1208) (assay: ELISA, S trimer coated, 1:50 dilution).

| Binder | Optical Density (OD; 450 nm) |
| --- | --- |
| B6 | 2.46 OD450 |

Each binder was assayed against T1, SARS-CoV-2 Spike (S) trimer (SARS-CoV-2, UniProt P0DTC2 14-1208) (assay: ELISA, S trimer coated, 1:50 dilution).
T1 construct: also called Spike trimer

| Binder | Optical Density (OD; 450 nm) |
| --- | --- |
| B7 | 1.38 OD450 |
| B8 | 2.76 OD450 |
| B3 | 2.94 OD450 |
| B4 | 2.47 OD450 |
| B5 | 2.02 OD450 |

These binders were tested against T2, SARS-CoV-2 Envelope (E) protein (SARS-CoV-2, UniProt P0DTC4 1-75) (assay: ELISA).

| Binder | binding result |
| --- | --- |
| B8 | no binding (tested: 2-fold over hIgG1 background) |
| B3 | no binding (tested: 2-fold over hIgG1 background) |
| B4 | no binding (tested: 2-fold over hIgG1 background) |
| B5 | no binding (tested: 2-fold over hIgG1 background) |
| B9 | no binding (tested: 2-fold over hIgG1 background) |

What follows are binders tested against T1, SARS-CoV-2 Spike (S) trimer (assay: ELISA).

| Binder | binding result |
| --- | --- |
| B10 | no binding (tested: 2-fold over hIgG1 background) |
| B11 | no binding (tested: 2-fold over hIgG1 background) |

What follows are binders tested against T2, SARS-CoV-2 Envelope (E) protein (assay: ELISA, Envelope protein).

| Binder | Optical Density (OD; 450 nm) |
| --- | --- |
| B10 | 0.469 OD450 |

These binders were tested against T3, SARS-CoV-2 S1 protein (SARS-CoV-2, UniProt P0DTC2 16-685) (assay: BLI).
T3 construct: domain: S1 protein; also called S1 monomer

| Binder | binding result |
| --- | --- |
| B7 | no binding (tested: 300 nM) |
| B10 | no binding (tested: 300 nM) |
| B12 | no binding (tested: 300 nM) |
| B11 | no binding (tested: 300 nM) |
| B9 | no binding (tested: 300 nM) |
| B13 | no binding (tested: 300 nM) |

What follows are binders tested against T4, SARS-CoV-2 Receptor Binding Domain (RBD) (SARS-CoV-2, UniProt P0DTC2 319-541) (assay: BLI).
T4 construct: also called RBD protein

| Binder | binding result |
| --- | --- |
| B7 | no binding (tested: 300 nM) |
| B10 | no binding (tested: 300 nM) |
| B12 | no binding (tested: 300 nM) |
| B11 | no binding (tested: 300 nM) |
| B13 | no binding (tested: 300 nM) |

Each binder was assayed against SARS-CoV-2 Nucleocapsid (N) protein (SARS-CoV-2, UniProt P0DTC9 1-419) (assay: BLI).

| Binder | binding result |
| --- | --- |
| B8 | no binding (tested: 300 nM) |
| B3 | no binding (tested: 300 nM) |
| B4 | no binding (tested: 300 nM) |
| B5 | no binding (tested: 300 nM) |
| B9 | no binding (tested: 300 nM) |

What follows are binders tested against T5, SARS-CoV-2 S2 protein (SARS-CoV-2, UniProt P0DTC2 686-1213) (assay: BLI).
T5 construct: domain: S2 protein; also called S2 monomer

| Binder | binding result |
| --- | --- |
| B7 | no binding (tested: 300 nM) |
| B8 | no binding (tested: 300 nM) |
| B10 | no binding (tested: 300 nM) |
| B1 | no binding (tested: 300 nM) |
| B2 | no binding (tested: 300 nM) |
| B3 | no binding (tested: 300 nM) |
| B4 | no binding (tested: 300 nM) |
| B5 | no binding (tested: 300 nM) |
| B11 | no binding (tested: 300 nM) |
